In patent US11906524B2, “Urea biosensors and uses thereof” (Duke University, priority 2015, dated 2024):
Residue numbers refer to the chain shown, from its start. Numbers in names are those of the source. Read-outs that look alike come from different tables or passages of the source. Blank lines part the entries; values can stand above or below the molecule they belong to.

Columns and labels:
Assay type in all cases: binding
[1] = Urea titration of emission intensity spectra (Nanodrop3300) with ratiometric analysis, singly labeled conjugates; details: urea
Text: (§1) Determination of emission intensity spectra.
(§2) Ratiometric analysis of urea binding. […] 2
(§3) For a single urea-binding site, the fractional saturation is given by
(§4) [formula] where [L] is the ligand (urea) concentration and Kd the dissociation constant, ^trueKd for ytrue.
(§5) [formula] where ^appIλ2 and ^satIλ2 are the emission intensities of the monochromatic signal at wavelength λ2 of the ligand-free and ligand-bound protein, respectively.

[2] = as above; parameters: key: m, monochromatic; d, dichromatic (i.e. spectral shape change); details: urea response
Text: as §1, §2, §3, §4, §5

[3] = Temperature- and urea-dependent fluorescence landscapes of fluorescent conjugates (Roche LightCycler); parameters: key: y, yes; n, no; details: Acrylodan conjugate; fluorescent response to urea
How it was run: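 Acrylodan or Badan was attached to single-cysteine csUBP7 mutants and fluorescence was recorded over 0–4.8 M urea in 20 mM KCl, 20 mM MOPS (pH 7.4), with temperature stepped by 1K. Urea Kd came from ratiometric single-site fits, and Kd values across temperatures were fit to the Gibbs-Helmholtz equation.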

[4] = ctUBP6 Acrylodan conjugate, nb = no binding, read-out: ^appKd
[5] = ctUBP6 Badan conjugate, ^d = noisy data and or bad fit, read-out: ^appKd
[6] = ctUBP6 Badan conjugate, ^d = noisy data and or bad fit, read-out: ^trueKd

Kd [1, 4]: 0.52 mM | Kd [1, 5]: 0.62 mM | Kd [1, 6]: 0.5 mM
B1: ctUBP6 T96C: ctUBP6 96C cysteine mutant (SEQ ID NO: 50), tested as Acrylodan and Badan conjugates (conjugate)
chain: MVEEPVDNKPGTDTSAEDTIKVGILHSLSGTMAISEVSLKDAELMAIEEINQAGGLLGKKIEPVIEDGASDWPTFAEKAKKLLQNDKVATVFGCWCSASRKAVLPVFEENNGLLWYPVQYEGMESSPNIFYTGAAPNQQIVPAVEWLLENKGKRFFLLGSDYVFPRTANKIIKAQLSAIGGELIAEEYTPLGHTDYSTIVNKIKTAKPDVVFNTLNGDSNVAFFKQLKDAGITSEDITVCSVSVAEEEIRGIGAENIKGHLVSWNYYQTTDTPENKEFVEKYKSKYGSDRVTDDPIEAAYIAVHLWAEAVKKAGSFEVEKVKEAAKGLEFKAPEGLVKIEGENQHLWKPVRIGEVQEDGLIKEIWSTSEAVRPDPYLKTYDWAKGLSDGGSHHHHHH
modifications: Acrylodan or Badan conjugate; ctUBP6_96C (96C substitution mutant with signal peptide replaced with M and a GGSHHHHHH at C-terminus)
Shape ([2]; ctUBP6 Acrylodan conjugate): d | Shape ([2]; ctUBP6 Badan conjugate): d | Response [3]: n

Kd [1, 4]: 23 mM | Kd ([1]; ctUBP6 Acrylodan conjugate, nb = no binding, read-out: ^trueKd): 22 mM | Kd [1, 5]: 9.4 mM | Kd [1, 6]: 11 mM
B2: ctUBP6 F164C: ctUBP6 164C cysteine mutant (SEQ ID NO: 53), tested as Acrylodan and Badan conjugates (conjugate)
chain: B1 chain with C96T, F164C
modifications: Acrylodan or Badan conjugate; ctUBP6_164C (164C substitution mutant with signal peptide replaced with M and a GGSHHHHHH at C-terminus)
Shape ([2]; ctUBP6 Acrylodan conjugate): d | Shape ([2]; ctUBP6 Badan conjugate): d | Response [3]: y
